The results in this text go back to patent publication US20230416352A1.

The target in the experiment is Cynomolgus monkey CTGF-Fc (cynomolgus monkey). Briefly: ELISA, cyno-CTGF-mFc captured by anti-mFc. Background: In an ELISA, binding on a coated surface is turned into a signal by an enzyme label.
Chain of Cynomolgus monkey CTGF-Fc (cynomolgus monkey) (P29279 other isoform, or with tags, fused parts or gaps limits assumed): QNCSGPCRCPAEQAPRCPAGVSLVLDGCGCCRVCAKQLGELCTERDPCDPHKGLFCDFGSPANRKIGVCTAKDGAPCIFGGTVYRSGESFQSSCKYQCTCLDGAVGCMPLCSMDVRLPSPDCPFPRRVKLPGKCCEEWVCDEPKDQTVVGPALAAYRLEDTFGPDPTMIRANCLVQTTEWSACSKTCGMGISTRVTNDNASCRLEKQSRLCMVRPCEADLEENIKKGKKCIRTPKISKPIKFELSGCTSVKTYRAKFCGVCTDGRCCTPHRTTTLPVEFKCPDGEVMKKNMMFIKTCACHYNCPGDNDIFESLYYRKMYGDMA

B1: Hu164-57wl (antibody, human IgG1, lambda, V domains shown)
VH: EVTLKESGPVLVKPTETLTLTCTVSGFSLSTFGVHWIRQPPGKALEWLAVIWRRGGTDYNAAFMSRLTISKDTSKSQVVLTMTNMDPVDTATYYCARDGGFDYWGQGTTVTVSS
VL: ETVVTQEPSLTVSPGGTVTLTCRSSIGAVTTSNYANWVQQKPGQAFRGLIGGTSNRAPWTPARFSGSLLGGKAALTLSGVQPEDEAEYYCALWYSTHYVFGGGTKLTVLG
For B1, the concentration giving a half-maximal response (EC50) is 29 pM.

B2: Hu164-87wl (antibody, human IgG1, lambda, V domains shown)
VH: EVQLQESGPGLVKPSQTLSLTCTVSGFSISTFGVHWIRQHPGKGLEWLGVIWRRGGTDYNAAFMSRLTISKDTSKNQVSFKLSSVTAADTAVYYCARDGGFDYWGQGTTVTVSS
VL: ETVVTQEPSLTVSPGGTVTLTCRSSIGAVTTSNYANWVQQKPGQAFRGLIGGTSNRAPWTPARFSGSLLGGKAALTLSGVQPEDEAEYYCALWYSTHYVFGGGTKLTVLG
With B2, the 50% effective concentration (EC50) was found to be 34 pM.

B3: Hu164-69wl (antibody, human IgG1, lambda, V domains shown)
VH: EVTLKESGPVLVKPTETLTLTCTVSGFSLSTFGVHWIRQPPGKGLEWLGVIWRRGGTDYNAAFMSRLTISKDTSKSQVVFTMTNMDPVDTATYYCARDGGFDYWGQGTTVTVSS
VL: ESVVTQPPSVSGAPGQRVTISCRSSIGAVTTSNYANWVQQLPGTAFKGLIGGTSNRAPGVPDRFSGSKSGTSASLAITGLQAEDEADYYCALWYSTHYVFGGGTKLTVLG
Molecule B3 yielded a concentration giving a half-maximal response (EC50) of 32 pM.

B4: Hu164-77wl (antibody, human IgG1, lambda, V domains shown)
VH: EVQLQESGPGLVKPSQTLSLTCTVSGFSISTFGVHWIRQHPGKGLEWIGVIWRRGGTDYNAAFMSRVTISKDTSKNQVSLKLSSVTAADTAVYYCARDGGFDYWGQGTTVTVSS
VL: ETVVTQEPSLTVSPGGTVTLTCRSSIGAVTTSNYANWVQQKPGQAFRGLIGGTSNRAPWTPARFSGSLLGGKAALTLSGVQPEDEAEYYCALWYSTHYVFGGGTKLTVLG
On to B4, for which the 50% effective concentration (EC50) was found to be 38 pM.

B5: Hu164-68wl (antibody, human IgG1, lambda, V domains shown)
VH: EVTLKESGPVLVKPTETLTLTCTVSGFSLSTFGVHWIRQPPGKGLEWLGVIWRRGGTDYNAAFMSRLTISKDTSKSQVVFTMTNMDPVDTATYYCARDGGFDYWGQGTTVTVSS
VL: ETVVTQEPSFSVSPGGTVTLTCRSSIGAVTTSNYANWVQQTPGQAFRGLIGGTSNRAPGVPDRFSGSILGNKAALTITGAQADDESDYYCALWYSTHYVFGGGTKLTVLG
The molecule B5 registered an EC50 of 36 pM.

B6: Hu147-11wk (antibody, human IgG1, kappa, V domains shown)
VH: EVQLVESGGGLVQPGGSLRLSCAASGFTFSTYAMNWVRQAPGKGLEWVGRIRTKSNNYATYYADSVKDRFTISRDDSKNSLYLQMNSLKTEDTAVYYCVETGFAYWDQGTLVTVSS
VL: EIVLTQSPATLSLSPGERATLSCSASSSVSYMHWFQQKPGQSPRLLIYSTSNLASGIPARFSGSGSGTDYTLTISSLEPEDFAVYYCQQRSSYPLTFGQGTKLEIKR
In the case of B6, the EC50 came out at 52 pM.

B7: Hu147-32wk (antibody, human IgG1, kappa, V domains shown)
VH: EVQLVESGGGLVQPGGSLRLSCAASGFSFNTYAMNWVRQAPGKGLEWVARIRTKSNNYATYYADSVKDRFTISRDDSESSLYLQMNSLKTEDTAVYYCVETGFAYWDQGTLVTVSS
VL: EIVLTQSPATLSLSPGERATLSCSASSSVSYMHWFQQKPGQSPKLLIYSTSNLASGIPARFSGSGSGTDYTLTISSLEPEDFAVYYCQQRSSYPLTFGQGTKLEIKR
Take B7: the 50% effective concentration (EC50) amounted to 79 pM.

B8: Hu147-22wk (antibody, human IgG1, kappa, V domains shown)
VH: EVQLVESGGGLVQPGGSLRLSCAASGFTFNTYAMNWVRQAPGKGLEWVARIRTKSNNYATYYADSVKDRFTISRDDSKNSLYLQMNSLKTEDTAVYYCVETGFAYWDQGTLVTVSS
VL: EIVLTQSPATLSLSPGERATLSCSASSSVSYMHWFQQKPGQSPKLLIYSTSNLASGIPARFSGSGSGTDYTLTISSLEPEDFAVYYCQQRSSYPLTFGQGTKLEIKR
In the case of B8, the EC50 came to 73 pM.

B9: Hu147-34wk (antibody, human IgG1, kappa, V domains shown)
VH: EVQLVESGGGLVQPGGSLRLSCAASGFSFNTYAMNWVRQAPGKGLEWVARIRTKSNNYATYYADSVKDRFTISRDDSESSLYLQMNSLKTEDTAVYYCVETGFAYWDQGTLVTVSS
VL: DIQMTQSPSSLSASVGDRVTITCSASSSVSYMHWFQQKPGKSPKLLIYSTSNLASGVPSRFSGSGSGTDYTLTISSLQPEDFATYYCQQRSSYPLTFGQGTKLEIKR
B9 showed a concentration for a half-maximal effect (EC50) of 144 pM.

B10: Hu147-21wk (antibody, human IgG1, kappa, V domains shown)
VH: EVQLVESGGGLVQPGGSLRLSCAASGFTFNTYAMNWVRQAPGKGLEWVARIRTKSNNYATYYADSVKDRFTISRDDSKNSLYLQMNSLKTEDTAVYYCVETGFAYWDQGTLVTVSS
VL: EIVLTQSPATLSLSPGERATLSCSASSSVSYMHWFQQKPGQSPRLLIYSTSNLASGIPARFSGSGSGTDYTLTISSLEPEDFAVYYCQQRSSYPLTFGQGTKLEIKR
B10 showed an EC50 of 53 pM.

B11: Hu147-31wk (antibody, human IgG1, kappa, V domains shown)
VH: EVQLVESGGGLVQPGGSLRLSCAASGFSFNTYAMNWVRQAPGKGLEWVARIRTKSNNYATYYADSVKDRFTISRDDSESSLYLQMNSLKTEDTAVYYCVETGFAYWDQGTLVTVSS
VL: EIVLTQSPATLSLSPGERATLSCSASSSVSYMHWFQQKPGQSPRLLIYSTSNLASGIPARFSGSGSGTDYTLTISSLEPEDFAVYYCQQRSSYPLTFGQGTKLEIKR
As to B11, the EC50 is 70 pM.

B12: Hu147-12wk (antibody, human IgG1, kappa, V domains shown)
VH: EVQLVESGGGLVQPGGSLRLSCAASGFTFSTYAMNWVRQAPGKGLEWVGRIRTKSNNYATYYADSVKDRFTISRDDSKNSLYLQMNSLKTEDTAVYYCVETGFAYWDQGTLVTVSS
VL: EIVLTQSPATLSLSPGERATLSCSASSSVSYMHWFQQKPGQSPKLLIYSTSNLASGIPARFSGSGSGTDYTLTISSLEPEDFAVYYCQQRSSYPLTFGQGTKLEIKR
B12 registered an EC50 of 62 pM.

B13: Hu147-24wk (antibody, human IgG1, kappa, V domains shown)
VH: EVQLVESGGGLVQPGGSLRLSCAASGFTFNTYAMNWVRQAPGKGLEWVARIRTKSNNYATYYADSVKDRFTISRDDSKNSLYLQMNSLKTEDTAVYYCVETGFAYWDQGTLVTVSS
VL: DIQMTQSPSSLSASVGDRVTITCSASSSVSYMHWFQQKPGKSPKLLIYSTSNLASGVPSRFSGSGSGTDYTLTISSLQPEDFATYYCQQRSSYPLTFGQGTKLEIKR
Take B13: the concentration giving a half-maximal response (EC50) stood at 80 pM.

B14: Hu147-23wk (antibody, human IgG1, kappa, V domains shown)
VH: EVQLVESGGGLVQPGGSLRLSCAASGFTFNTYAMNWVRQAPGKGLEWVARIRTKSNNYATYYADSVKDRFTISRDDSKNSLYLQMNSLKTEDTAVYYCVETGFAYWDQGTLVTVSS
VL: EIVLTQSPATLSLSPGERATLSCSASSSVSYMHWFQQKPGQSPKLWIYSTSNLASGVPARFSGSGSGTDYTLTISSLEPEDFAVYYCQQRSSYPLTFGQGTKLEIKR
B14 gave an EC50 of 63 pM.

B15: Hu147-15wk (antibody, human IgG1, kappa, V domains shown)
VH: EVQLVESGGGLVQPGGSLRLSCAASGFTFSTYAMNWVRQAPGKGLEWVGRIRTKSNNYATYYADSVKDRFTISRDDSKNSLYLQMNSLKTEDTAVYYCVETGFAYWDQGTLVTVSS
VL: DIQLTQSPSSLSASVGDRVTITCSASSSVSYMHWFQQKPGKSPKLWIYSTSNLASGVPSRFSGSGSGTDYTLTISSLQPEDFATYYCQQRSSYPLTFGQGTKLEIKR
In turn, B15 yielded a 50% effective concentration (EC50) of 53 pM.

B16: Hu147-13wk (antibody, human IgG1, kappa, V domains shown)
VH: EVQLVESGGGLVQPGGSLRLSCAASGFTFSTYAMNWVRQAPGKGLEWVGRIRTKSNNYATYYADSVKDRFTISRDDSKNSLYLQMNSLKTEDTAVYYCVETGFAYWDQGTLVTVSS
VL: EIVLTQSPATLSLSPGERATLSCSASSSVSYMHWFQQKPGQSPKLWIYSTSNLASGVPARFSGSGSGTDYTLTISSLEPEDFAVYYCQQRSSYPLTFGQGTKLEIKR
In the case of B16, the EC50 came out at 43 pM.

B17: Hu147-33wk (antibody, human IgG1, kappa, V domains shown)
VH: EVQLVESGGGLVQPGGSLRLSCAASGFSFNTYAMNWVRQAPGKGLEWVARIRTKSNNYATYYADSVKDRFTISRDDSESSLYLQMNSLKTEDTAVYYCVETGFAYWDQGTLVTVSS
VL: EIVLTQSPATLSLSPGERATLSCSASSSVSYMHWFQQKPGQSPKLWIYSTSNLASGVPARFSGSGSGTDYTLTISSLEPEDFAVYYCQQRSSYPLTFGQGTKLEIKR
Turning to B17, the EC50 came to 44 pM.

B18: Hu147-14wk (antibody, human IgG1, kappa, V domains shown)
VH: EVQLVESGGGLVQPGGSLRLSCAASGFTFSTYAMNWVRQAPGKGLEWVGRIRTKSNNYATYYADSVKDRFTISRDDSKNSLYLQMNSLKTEDTAVYYCVETGFAYWDQGTLVTVSS
VL: DIQMTQSPSSLSASVGDRVTITCSASSSVSYMHWFQQKPGKSPKLLIYSTSNLASGVPSRFSGSGSGTDYTLTISSLQPEDFATYYCQQRSSYPLTFGQGTKLEIKR
B18 gave an EC50 of 77 pM.

B19: Hu95-51yk (antibody, human IgG1, kappa, V domains shown)
VH: EVQLVQSGAEVKKPGASVKVSCRASGFTFTNYAIHWVKQAPGQRLEWMGLVYPYTGGTAYNQKFKDKVTLTFDTSASTAYMELSSLRSEDTAVYYCARWGMIPGTNSYFDVWGQGTTVTVSS
VL: EIVLTQSPATLSLSPGERATLSCRASSSVSYIHWYQQKPGQAPRPWIYATSNLASGIPARFSGSGSGTDYTLTISRLEPEDFAVYYCQQWNSNPWTFGGGTKVEIKR
With B19, the 50% effective concentration (EC50) came out at 59 pM.

What is called EC50 is the midpoint of the concentration-response curve.
